Measured values reported in US20250361525, “AAV VECTORS FOR GENE EDITING” (Scribe Therapeutics Inc., published 2025).

Target: T1, CasX variant 515 (synthetic construct)
T1 chain: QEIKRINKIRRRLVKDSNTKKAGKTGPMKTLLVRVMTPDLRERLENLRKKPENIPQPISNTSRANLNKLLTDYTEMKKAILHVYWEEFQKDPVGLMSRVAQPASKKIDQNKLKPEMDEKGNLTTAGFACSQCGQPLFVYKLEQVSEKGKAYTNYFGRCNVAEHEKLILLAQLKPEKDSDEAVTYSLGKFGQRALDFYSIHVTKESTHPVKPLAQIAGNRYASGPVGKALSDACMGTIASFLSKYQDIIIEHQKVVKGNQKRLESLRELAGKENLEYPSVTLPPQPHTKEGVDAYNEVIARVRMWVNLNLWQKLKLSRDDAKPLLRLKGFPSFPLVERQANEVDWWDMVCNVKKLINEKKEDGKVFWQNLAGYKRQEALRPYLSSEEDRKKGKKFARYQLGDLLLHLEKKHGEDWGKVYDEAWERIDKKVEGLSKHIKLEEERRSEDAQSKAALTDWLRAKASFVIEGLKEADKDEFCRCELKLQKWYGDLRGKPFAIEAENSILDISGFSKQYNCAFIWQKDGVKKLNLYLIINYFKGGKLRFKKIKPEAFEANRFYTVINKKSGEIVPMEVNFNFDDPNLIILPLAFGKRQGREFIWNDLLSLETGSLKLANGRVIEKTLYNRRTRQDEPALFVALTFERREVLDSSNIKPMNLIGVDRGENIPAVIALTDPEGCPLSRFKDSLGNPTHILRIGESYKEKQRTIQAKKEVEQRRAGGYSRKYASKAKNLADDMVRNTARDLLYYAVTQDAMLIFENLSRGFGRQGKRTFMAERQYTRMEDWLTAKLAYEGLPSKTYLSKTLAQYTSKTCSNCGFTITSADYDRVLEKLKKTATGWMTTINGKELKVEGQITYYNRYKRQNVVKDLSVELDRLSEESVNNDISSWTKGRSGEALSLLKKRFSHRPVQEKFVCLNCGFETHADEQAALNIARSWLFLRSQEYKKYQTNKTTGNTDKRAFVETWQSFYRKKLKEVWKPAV
Assay: cleavage_in_vitro

Row | Binder | activity
1 | sgRNA 2.7.37 ; 7.37 target (ssRNA ; dsDNA, 5' amino modifier C6) RNA: UACUGGCGCUUUUAUCUCAUUACUUUGAGAGCCAUCACCAGCGACUAUGUCGUAUGGGUAAAGCGCUUAUUUAUCGGAGAGAAAUCCGAUAAAUAAGAAGCAUCAAAGGGCCGAGAUGUCUCGCUCCG DNA 1: TGAAGCTGACAGCATTCGGGCCGAGATGTCTCGCTCCGTGGCCTTAGCTGTGCTCGCGCT DNA 2: AGCGCGAGCACAGCTAAGGCCACGGAGCGAGACATCTCGGCCCGAATGCTGTCAGCTTCA | 0.0204 s⁻¹
2 | sgRNA 316.7.37 ; 7.37 target (ssRNA ; dsDNA, 5' amino modifier C6) RNA: ACUGGCGCUUCUAUCUGAUUACUCUGAGCGCCAUCACCAGCGACUAUGUCGUAGUGGGUAAAGCUCCCUCUUCGGAGGGAGCAUCAGAGGGCCGAGAUGUCUCGCUCCG DNA 1: TGAAGCTGACAGCATTCGGGCCGAGATGTCTCGCTCCGTGGCCTTAGCTGTGCTCGCGCT DNA 2: AGCGCGAGCACAGCTAAGGCCACGGAGCGAGACATCTCGGCCCGAATGCTGTCAGCTTCA | 0.0851 s⁻¹
3 | sgRNA 235.7.37 ; 7.37 target (ssRNA ; dsDNA, 5' amino modifier C6) RNA: ACUGGCGCUUCUAUCUGAUUACUCUGAGCGCCAUCACCAGCGACUAUGUCGUAGUGGGUAAAGCCGCUUACGGACUUCGGUCCGUAAGAGGCAUCAGAGGGCCGAGAUGUCUCGCUCCG DNA 1: TGAAGCTGACAGCATTCGGGCCGAGATGTCTCGCTCCGTGGCCTTAGCTGTGCTCGCGCT DNA 2: AGCGCGAGCACAGCTAAGGCCACGGAGCGAGACATCTCGGCCCGAATGCTGTCAGCTTCA | 0.0647 s⁻¹
4 | sgRNA 174.7.37 ; 7.37 target (ssRNA ; dsDNA, 5' amino modifier C6) RNA: ACUGGCGCUUUUAUCUGAUUACUUUGAGAGCCAUCACCAGCGACUAUGUCGUAGUGGGUAAAGCUCCCUCUUCGGAGGGAGCAUCAAAGGGCCGAGAUGUCUCGCUCCG DNA 1: TGAAGCTGACAGCATTCGGGCCGAGATGTCTCGCTCCGTGGCCTTAGCTGTGCTCGCGCT DNA 2: AGCGCGAGCACAGCTAAGGCCACGGAGCGAGACATCTCGGCCCGAATGCTGTCAGCTTCA | 0.0534 s⁻¹
5 | sgRNA 2.7.9 ; 7.9 target (ssRNA ; dsDNA, 5' amino modifier C6) RNA: UACUGGCGCUUUUAUCUCAUUACUUUGAGAGCCAUCACCAGCGACUAUGUCGUAUGGGUAAAGCGCUUAUUUAUCGGAGAGAAAUCCGAUAAAUAAGAAGCAUCAAAGGUGUAGUACAAGAGAUAGAA DNA 1: TTTCAGTGGGGGTGAATTCAGTGTAGTACAAGAGATAGAAAGACCAGTCCTTGCTGAAAG DNA 2: CTTTCAGCAAGGACTGGTCTTTCTATCTCTTGTACTACACTGAATTCACCCCCACTGAAA | 0.135 s⁻¹
6 | sgRNA 174.7.9 ; 7.9 target (ssRNA ; dsDNA, 5' amino modifier C6) RNA: ACUGGCGCUUUUAUCUGAUUACUUUGAGAGCCAUCACCAGCGACUAUGUCGUAGUGGGUAAAGCUCCCUCUUCGGAGGGAGCAUCAAAGGUGUAGUACAAGAGAUAGAA DNA 1: TTTCAGTGGGGGTGAATTCAGTGTAGTACAAGAGATAGAAAGACCAGTCCTTGCTGAAAG DNA 2: CTTTCAGCAAGGACTGGTCTTTCTATCTCTTGTACTACACTGAATTCACCCCCACTGAAA | 0.172 s⁻¹
7 | sgRNA 235.7.9 ; 7.9 target (ssRNA ; dsDNA, 5' amino modifier C6) RNA: ACUGGCGCUUCUAUCUGAUUACUCUGAGCGCCAUCACCAGCGACUAUGUCGUAGUGGGUAAAGCCGCUUACGGACUUCGGUCCGUAAGAGGCAUCAGAGGUGUAGUACAAGAGAUAGAA DNA 1: TTTCAGTGGGGGTGAATTCAGTGTAGTACAAGAGATAGAAAGACCAGTCCTTGCTGAAAG DNA 2: CTTTCAGCAAGGACTGGTCTTTCTATCTCTTGTACTACACTGAATTCACCCCCACTGAAA | 0.17 s⁻¹
8 | sgRNA 316.7.9 ; 7.9 target (ssRNA ; dsDNA, 5' amino modifier C6) RNA: ACUGGCGCUUCUAUCUGAUUACUCUGAGCGCCAUCACCAGCGACUAUGUCGUAGUGGGUAAAGCUCCCUCUUCGGAGGGAGCAUCAGAGGUGUAGUACAAGAGAUAGAA DNA 1: TTTCAGTGGGGGTGAATTCAGTGTAGTACAAGAGATAGAAAGACCAGTCCTTGCTGAAAG DNA 2: CTTTCAGCAAGGACTGGTCTTTCTATCTCTTGTACTACACTGAATTCACCCCCACTGAAA | 0.141 s⁻¹
